Data as given in patent US7589065B2, “Catalysis of the cis/trans-isomerisation of secondary amide peptide compounds” (Max-Planck Gesellschaft zur Forderung der Wissenschaften, …, priority 2001, dated 2009).

B1: trigger factor (TF): peptidyl-prolyl cis/trans isomerase (Stoller G. et al., 1995) (protein)
chain: MQVSVETTQGLGRRVTITIAADSIETAVKSELVNVAKKVRIDGFRKGKVPMNIVAQRYGASVRQDVLGDLMSRNFIDAIIKEKINPAGAPTYVPGEYKLGEDFTYSVEFEVYPEVELQGLEAIEVEKPIVEVTDADVDGMLDTLRKQQATWKEKDGAVEAEDRVTIDFTGSVDGEEFEGGKASDFVLAMGQGRMIPGFEDGIKGHKAGEEFTIDVTFPEEYHAENLKGKAAKFAINLKKVEERELPELTAEFIKRFGVEDGSVEGLRAEVRKNMERELKSAIRNRVKSQAIEGLVKANDIDVPAALIDSEIDVLRRQAAQRFGGNEKQALELPRELFEEQAKRRVVVGLLLGEVIRTNELKADEERVKGLIEEMASAYEDPKEVIEFYSKNKELMDNMRNVALEEQAVEAVLAKAKVTEKETTFNELMNQQA
B2: fragment of the TF: fragment of the trigger factor (Stoller G. et al., 1996) (protein)
chain: RKQQATWKEKDGAVEAEDRVTIDFTGSVDGEEFEGGKASDFVLAMGQGRMIPGFEDGIKGHKAGEEFTIDVTFPEEYHAENLKGKAAKFAINLKKVEERELPELTAE
B3: Parvulin: peptidyl-prolyl cis/trans isomerase (Rahfeld et al., 1994) (protein)
chain: AKTAAALHILVKEEKLALDLLEQIKNGADFGKLAKKHSICPSGKRGGDLGEFRQGQMVPAFDKVVFSCPVLEPTGPLHTQFGYHIIKVLYRN

Test: 2D 1H NMR exchange (NOESY) measurement of cis/trans isomerisation in the pentapeptide
Type: biochemical
Conditions: 20 μM addition; for relative intensity of the cross signal of the peptide bond Ala-Tyr / relative intensity of the cross signal of the peptide bond Tyr-Ala: 25 mM pentapeptide, pH 7.1, 278° K; for relative intensity of the cross signal of the peptide bond Ala-Tyr: no addition 3.50 ± 0.51; for relative intensity of the cross signal of the peptide bond Tyr-Ala: no addition 3.89 ± 0.32
Source text: A further possibility, only described in 1998, is the determination of the cis/trans isomerisation rate of secondary amide peptide bonds containing aromatic amino acids by means of 2D 1H NMR exchange experiments (Scherer G. et al., 1998, JACS 120:5568-5574). In Example 8, this NMR method is used to determine a catalytic acceleration of the cis/trans isomerisation of the peptide bonds Ala-Tyr and Tyr-Ala within the pentapeptide Ala-Ala-Tyr-Ala-Ala. The acceleration is accomplished by catalytic amounts of DnaK.
NMR Device: Bruker DRX-500, Equipped with z-gradient
• FIG. 8: The alanine methyl region from the two-dimensional exchange 1H-NMR spectrum of 25 mM Ala-Ala-Tyr-Ala-Ala in 25 mM Tris, 11 mM MgCl2, 50 mM KCl, 9:1H2O:D2O, pH 7.1 at 278° K. The mixing time of the phase-sensitive NOESY was 330 ms. Each FID had 184 scans. The amount of data from t1×t2=512×8192 points covered a spectral range of 5501 Hz×5482 Hz. The correction of the base line was carried out by adjustment with a polynom of fifth order in the F2 dimension. […] The experiment was carried out under identical conditions as described above. In addition, 20 μM DnaK was contained in the measuring solution.
In a further analysis of the method of the two-dimensional NOESY experiment illustrated in Example 8, the cross signals can be quantified by means of common mathematical techniques.

Row | Molecule | catalysis of the cis/trans isomerisation of the Ala-Tyr and Tyr-Ala peptide bonds (in words) | relative intensity of the cross signal of the peptide bond Ala-Tyr | relative intensity of the cross signal of the peptide bond Tyr-Ala
1 | B1 | neither catalyse | 3.83 ± 1.07 | 4.42 ± 0.58
2 | B2 | neither catalyse | 3.96 ± 0.77 | 3.22 ± 0.58
3 | B3 | neither catalyse | 2.90 ± 0.96 | 3.11 ± 0.46
